Values quoted from earlier work, collected in PMC6800417.

Target: EGFR (Homo sapiens) (UniProt P00533)

Kd: 1.3 nM
Substance: 111In-DTPA-hEGF (from UniProt P01133)
